In one data set the test system is GSM substrate peptide. The experiment in a line: Specific activity of active GST-GSK3β wildtype and mutants. It counts as biochemical. As to the method: (§1) Active GST-GSK3β and GST-GSK3β-T^43A and GST-GSK3β-T^390 mutants were expressed and purified as described in (29). The specific activity of the wildtype and the mutants was determined using the GSM substrate peptide (Upstate, Lake Placid, N.Y.) and were as follows: GST-GSK3β (91 μmol/μg×min) and GST-GSK3β-T^43A (53 μmol/μg×min) and GST-GSK3β-T^390A (65 μmol/μg×min). In vitro GSK3β kinase assays were performed by incubating purified active wildtype GST-GSK3β or GST-GSK3β-T^43A and GST-GSK3β-T^390A mutants (400 ng) at 30° C. for 10 minutes in kinase buffer supplemented with 1 mM ATP containing [γ-^32P] ATP and GSM substrate peptide (62.5 μM) (Upstate, Lake Placid, N.Y.). Reactions were terminated by spotting onto P81 filters. Filters were washed extensively and counted in a scintillation counter. To examine the effect of p38 MAPK and Akt on GSK3β activity, purified active GSK3β or mutants were preincubated for 15 minutes at 30° C. with 500 ng recombinant active p38 MAPK or active Akt (Cell Signaling, Beverly, Mass.) prior to performing the GSK3β activity assay as described above.

Data set [1] has as its target T1, GST-GSK3β (Homo sapiens, UniProt P49841).
T1 construct: made in house
The experiment in a line: In vitro GSK3β kinase assay with inhibitory peptides (GSM substrate). In kind it is biochemical. To be noted: for GSK3β activity in the presence of peptide: in vitro kinase reaction, FIG. 3G. As to the method: as §1
For peptide inhibition assays, Phospho-S^9 (GRPRTTS(PO3H2)FAE) (SEQ ID NO:95) (20). Phospho-[…] (RIQAAAST(PO3H2)PTN) (SEQ ID NO:7) and non-phospho-T^390 (RIQAAASTPTN) (SEQ ID NO:96) peptides were synthesized and purified by UVM protein Core Facility. In vitro kinase assays were performed with purified GST-GSK3β (400 ng) in Kinase buffer supplement with 1 mM ATP containing [γ-^32P] ATP and the indicated concentrations of GSM and inhibitory peptide.

Data set [2] relates to phospho-Ser^9 GSK3β in 293T cells. Put plainly: Western blot of phospho-Ser^9 GSK3β in treated 293T cells. It counts as cell-based. The note with it: 40 minutes, SB203580 5 μM, Wortmanin 1 μM, FIG. 7. As to the method:
(§2) Thymocytes were isolated from wildtype, Rag^−/− or MKK6(Glu) transgenic mice.
(§3) Whole cell extracts were prepared in Triton lysis buffer (TLB) as previously described (25, 26). Nuclear extracts were made from cells as previously described (27). Immunoprecipitations and Western blotting was performed as described in (8). Anti-Akt, anti-p38 MAPK, anti-Lef, anti-c-Myc and anti-Histone (Santa Cruz Biotechnology, Santa Cruz, Calif.), anti-GSK3β, anti-β-catenin, anti-phospho-p38 MAPK and antiphospho-S^9 (Cell Signaling, Beverly, Mass.) and Anti-Flag (Stratagene, La Jolla, Calif.) were used for Western blot analysis. […] Anti-Akt, anti-p38 MAPK and Anti-GSK3β were used for immunoprecipitations. Anti-rabbit-HRP, anti-mouse-HRP (Jackson ImmunoResearch Laboratories, West Grove, Pa.) and anti-goat-HRP (Santa Cruz Biotechnology, Santa Cruz, Calif.) were used as secondary antibodies.
For orientation: Immunoblotting shows a protein as a band on a membrane.

The next data set relates to p38 MAPK. The note with it: SB203580 2.5 μM. As to the method: The reactions were terminated after 30 min at 30° C. by addition of SDS-PAGE sample buffer, separated by SDS-PAGE and transferred to nitrocellulose. Protein was visualized by staining with PonceauS and incorporated ^32P was visualized by autoradiography. In specific experiments, whole cell extracts were first depleted of Akt prior to p38 MAPK immunoprecipitation by being pre-incubated with anti-Akt antibody prebound to protein A-Sepharose followed by one incubation with protein A-sepharose alone.

Data set [3] relates to phosphorylation of GSK3β at Ser^389. The experiment in a line: Western blot of phospho-Ser^389 in mouse GSK3β-transfected 293T cells. The note with it: FIG. 4D. In kind it is cell-based. As to the method:
(§4) Thymocytes were isolated from wildtype, Rag^−/− or MKK6(Glu) transgenic mice. 293T cells were transiently transfected with the indicated expression constructs using calcium phosphate. When specified, 293T cells were treated with SB203580 (5 μM) and Wortmanin (1 μM) (Calbiochem, San Diego, Calif.). Wildtype, GSK3α^−/− and GSK3β^−/− ES cells (17), as well as WT and MKK3^−/−MKK6^−/− MEF (22) have been previously described, and were also treated with SB203580 as described above for the indicated periods of time. For in vivo inhibition of p38 MAPK, wildtype mice were intraperitoneally (i.p.) injected with SB203580 or vehicle alone, and after 18 hours brain and thymocytes were harvested to prepare whole cell lysates.
(§5) Whole cell extracts were prepared in Triton lysis buffer (TLB) as previously described (25, 26). Nuclear extracts were made from cells as previously described (27). Immunoprecipitations and Western blotting was performed as described in (8). Anti-Akt, anti-p38 MAPK, anti-Lef, anti-c-Myc and anti-Histone (Santa Cruz Biotechnology, Santa Cruz, Calif.), anti-GSK3β, anti-β-catenin, anti-phospho-p38 MAPK and antiphospho-S^9 (Cell Signaling, Beverly, Mass.) and Anti-Flag (Stratagene, La Jolla, Calif.) were used for Western blot analysis. The phospho-S^389 GSK3β antibody was made by Proteintech, Chicago, Ill., using N-C-ARIQAAA(phos-S)PPANATA (SEQ ID NO:87) for immunization. […]

The subject of data set [4] is phosphorylation of endogenous GSK3β at Ser^389. The experiment in a line: Western blot of phospho-Ser^389 of endogenous GSK3β in MEFs and ES cells. It counts as cell-based, mouse. The note with it: FIG. 4E-F. As to the method:
as §4, §5

A further data set concerns β-catenin. The experiment in a line: Western blot of β-catenin in 293T cells transfected with GSK3β, p38 and MKK6. It counts as cell-based. The note with it: FIG. 4D. As to the method:
as §4, §5

A further data set has as its system phospho-Ser^389 GSK3β. The experiment in a line: In vivo inhibition of p38 MAPK, phospho-Ser^389 GSK3β in thymocytes and brain. The arrangement: species or system mouse. The note with it: wildtype mice i.p., 18 hours, FIG. 4L. As to the method: as §2, §3
The target of the next data set is T2, GSK3β-T^390A mutant (Homo sapiens, UniProt P49841, T390A).
T2 construct: made in house
The experiment in a line: GSK3β activity after preincubation with active p38 MAPK or Akt. It counts as biochemical. To be noted: preincubated 15 minutes at 30° C. with 500 ng kinase; FIG. 3F. As to the method:
as §1

A further data set concerns the target T3, GSK3β-T^43A mutant (Homo sapiens, UniProt P49841, T43A).
T3 construct: made in house
Described as above. It counts as biochemical. The note with it: preincubated 15 minutes at 30° C. with 500 ng kinase; FIG. 3E. As to the method: as §1

Another data set concerns the target T4, wild-type GSK3β (Homo sapiens, UniProt P49841).
T4 construct: made in house
The data set is described as above. To be noted: preincubated 15 minutes at 30° C. with 500 ng kinase; FIG. 3D. It counts as biochemical. As to the method: as §1

The target of another data set is GSK3α (Homo sapiens, UniProt P49840). The experiment in a line: In vitro GSK3α kinase assay after preincubation with activated p38 MAPK. In kind it is biochemical. The note with it: pre-incubated 15 min; FIG. 12. As to the method: Recombinant kinase-active GSK3α was pre-incubated in the reaction buffer alone (GSKα), with activated p38 MAPK or activated Akt (15 min). In vitro GSK3α kinase assays were then performed using GSM as the substrate. Error bars represent SD (n=3).

Data set [5] has as its target T1, GST-GSK3β. The note with it: references 20, 21; cited from earlier work.

“Also recorded” adds a separate entry of the source. Where no end group is shown, it is not given here. [ ]: non-standard residue; d: D form. pT = C[C@@H](OP(=O)(O)O)[C@H](N)C(=O)O; pS = N[C@@H](COP(=O)(O)O)C(=O)O

T1 sequence (P49841 whole entry): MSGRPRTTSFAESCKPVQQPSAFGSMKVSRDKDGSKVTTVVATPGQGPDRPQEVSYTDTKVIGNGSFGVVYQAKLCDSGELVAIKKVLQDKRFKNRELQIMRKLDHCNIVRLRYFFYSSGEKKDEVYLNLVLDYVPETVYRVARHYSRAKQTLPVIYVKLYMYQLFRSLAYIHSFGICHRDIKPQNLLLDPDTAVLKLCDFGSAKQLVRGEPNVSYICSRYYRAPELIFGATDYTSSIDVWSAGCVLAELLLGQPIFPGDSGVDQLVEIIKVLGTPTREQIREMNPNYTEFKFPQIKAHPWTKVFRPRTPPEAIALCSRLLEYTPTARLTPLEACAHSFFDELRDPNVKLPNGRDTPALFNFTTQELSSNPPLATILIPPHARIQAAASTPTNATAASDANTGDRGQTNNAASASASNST
T3 sequence (P49841 whole entry T43A): as the sequence (P49841 whole entry) above, with T43A counted along it
T2 sequence (P49841 whole entry T390A): as the sequence (P49841 whole entry) above, with T390A counted along it
T4 sequence (P49841 whole entry): as the sequence (P49841 whole entry) above
GSK3α, sequence (P49840 whole entry, species assumed): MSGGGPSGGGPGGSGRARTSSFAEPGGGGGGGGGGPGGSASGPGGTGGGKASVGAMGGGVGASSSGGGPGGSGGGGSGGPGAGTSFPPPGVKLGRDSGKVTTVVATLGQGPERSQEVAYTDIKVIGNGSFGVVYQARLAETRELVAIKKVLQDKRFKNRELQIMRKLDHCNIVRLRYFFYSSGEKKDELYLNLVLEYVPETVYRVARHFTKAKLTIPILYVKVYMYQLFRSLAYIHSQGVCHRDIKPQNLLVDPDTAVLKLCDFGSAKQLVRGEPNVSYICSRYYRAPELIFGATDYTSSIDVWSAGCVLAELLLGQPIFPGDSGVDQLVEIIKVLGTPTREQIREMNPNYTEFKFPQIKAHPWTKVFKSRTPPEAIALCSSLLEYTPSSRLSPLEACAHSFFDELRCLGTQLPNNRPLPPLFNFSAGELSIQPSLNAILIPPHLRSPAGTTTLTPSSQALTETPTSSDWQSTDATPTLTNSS

For “GST-GSK3β-T^43A: purified active GST-GSK3β T^43A mutant”, the specific activity in the data set on GSM substrate peptide amounted to 53 µmol/µg/min.
In the case of “RIQAAAST(PO3H2)PTN (RIQAAAS[pT]PTN) [phospho-Thr^390 peptide]”, the “GSK3β activity in the presence of peptide” value with GST-GSK3β [1] is listed as “inhibited GSK3β activity”. Further, the “inhibition of GSK3β activity compared with phospho-Ser^9 peptide” value in the data set with GST-GSK3β [1] (various concentrations of peptides, FIG. 3H-J) is recorded as “as efficiently as the phospho-Ser^9 peptide”.
`COC[C@H]1OC(=O)c2coc3c2[C@@]1(C)C1=C(C3=O)[C@@H]2CCC(=O)[C@@]2(C)C[C@H]1OC(C)=O` [Wortmanin]: the “phosphorylation of Ser^9 of GSK3β” value in data set [2] is given as “impaired”.
As for `C[S+]([O-])c1ccc(-c2nc(-c3ccncc3)c(-c3ccc(F)cc3)[nH]2)cc1` (stereo not drawn) [SB203580], in the data set with p38 MAPK (FIG. 2E), the “phosphorylation of GSK3β by purified recombinant activated p38 MAPK” value was “blocked”. Besides, the “phosphorylation of recombinant catalytically-inactive GSK3β by immunoprecipitated p38 MAPK” value in the data set on p38 MAPK (p38 MAPK from MKK6 thymocytes or MKK6-transfected 293T cells, FIG. 2C) is “blocked”. For the same molecule, in data set [2], the “phosphorylation of Ser^9 of GSK3β” value is recorded as “not affected”. The “phosphorylation of Ser^389” value in data set [3] is recorded as “abrogated”. Further, the “phosphorylation of endogenous GSK3β at Ser^389” value in data set [4] (embryonic stem (ES) cells) and in [4] (wild-type mouse embryonic fibroblasts (MEFs)) was “inhibited” each time. The “amount of β-catenin” value in the data set with β-catenin is “decreased”. Moreover, the “levels of phospho-Ser^389 GSK3β” value in the data set on phospho-Ser^389 GSK3β (brain) and in the data set with phospho-Ser^389 GSK3β (thymocytes) was “reduced” in each case.
As to “p38 MAPK: recombinant active p38 MAPK (Cell Signaling)”, the “effect on GSK3β activity” value with GSK3β-T^390A mutant is “not”; in the data set with GSK3β-T^43A mutant, “inhibited”; in the data set with wild-type GSK3β, “inhibited”. For the same molecule, the “effect on GSK3α activity” value in the data set with GSK3α is reported as “did not affect; also recorded: does not inhibit”.
Take “GRPRTTS(PO3H2)FAE (GRPRTT[pS]FAE) [phospho-Ser^9 peptide]”: the “inhibition of GSK3β in vitro” value in the data set with GST-GSK3β [5] is on record as “specifically inhibits GSK3β in vitro”.
“GST-GSK3β: purified active wildtype GST-GSK3β fusion protein” gave a specific activity in the data set with GSM substrate peptide of 91 µmol/µg/min.
With “GST-GSK3β-T^390A: purified active GST-GSK3β T^390A mutant”, the specific activity in the data set on GSM substrate peptide was determined as 65 µmol/µg/min.
Regarding “RIQAAASTPTN [unphosphorylated-Thr^390 peptide, reference compound]”, the “GSK3β activity in the presence of peptide” value in the data set with GST-GSK3β [1] is on record as “did not”.

B1: Akt: recombinant active Akt (Cell Signaling) (protein)
chain: MNDVAIVKEGWLHKRGEYIKTWRPRYFLLKNDGTFIGYKERPQDVDQRESPLNNFSVAQCQLMKTERPRPNTFIIRCLQWTTVIERTFHVETPEEREEWATAIQTVADGLKRQEEETMDFRSGSPSDNSGAEEMEVSLAKPKHRVTMNEFEYLKLLGKGTFGKVILVKEKATGRYYAMKILKKEVIVAKDEVAHTLTENRVLQNSRHPFLTALKYSFQTHDRLCFVMEYANGGELFFHLSRERVFSEDRARFYGAEIVSALDYLHSEKNVVYRDLKLENLMLDKDGHIKITDFGLCKEGIKDGATMKTFCGTPEYLAPEVLEDNDYGRAVDWWGLGVVMYEMMCGRLPFYNQDHEKLFELILMEEIRFPRTLGPEAKSLLSGLLKKDPTQRLGGGSEDAKEIMQHRFFANIVWQDVYEKKLSPPFKPQVTSETDTRYFDEEFTAQMITITPPDQDDSMECVDSERRPHFPQFSYSASGTA
On to B1, for which the “effect on GSK3β activity” value with GSK3β-T^390A mutant, with GSK3β-T^43A mutant and with wild-type GSK3β was “inhibited” each time.

The values are drawn from patent US10052365B2, “Methods and products relating to GSK3β regulation” (University of Vermont and State Agricultural College, priority 2008, dated 2018).
